# Measurements from US20070128190A1 (GLENMARK PHARMACEUTICALS S A, published 2007).
# Residue numbers refer to the chain shown, from its start. In names and notes the source's numbering stands. Read-outs that look alike come from different tables or passages of the source.
# B1: GST-mouse α2 I domain fusion protein (other)
# chain: SPDFQFLTSFSPAVQACPSLVDVVVVCDESNSIYPWEAVKNFLVKFVTGLDIGPKKTQVALIQYANEPRIIFNLNDFETKEDMVQATSETRQHGGDLTNTFRAIEFARDYAYSQTSGGRPGATKVMVVVTDGESHDGSKLKTVIQQCNDDEILRFGIAVLGYLNRNALDTKNLIKEIKAIASTPTERYFFNVSDEAALLEKAGTLGEQIFSIEGTVQGGDNFQMEMSQ
# notes: also called murine α2 I-GST fusion protein; not shown: glutathione S-transferase tag encoded by vector pGEX-2TK
# B2: GST-rhesus α2 I domain fusion protein (other)
# chain: SPDFQLSASFSPATQPCPSLIDVVVVCDESNSIYPWDAVKNFLEKFVQGLDIGPTKTQVGLIQYANNPRVVFNLNTYKTKEEMIVATSQTSQYGGDLTNTFGAIQYARKYAYSAASGGRRSATKVMVVVTDGESHDGSMLKAVIDQCNHDNILRFGIAVLGYLNRNALDTKNLIKEIKAIASIPTERYFFNVSDEAALLEKAGTLGEQIFSIEGTV
# notes: also called rhesus GST-α2 I; not shown: glutathione S-transferase tag encoded by vector pGEX-2TK
# B3: GST-cynomolgus α2 I domain fusion protein of Example 12 (aspartic acid at position 40) (other)
# chain: B2 chain with K40D
# notes: also called cynomolgus monkey GST-α2 I; polymorphic cynomolgus I domain; not shown: glutathione S-transferase tag encoded by vector pGEX-2TK
# B4: mouse-human chimeric TMC-2206 antibody (wild type chimera) (antibody, human IgG1, V domains shown)
# VH: QVQLKESGPGLVAPSQSLSITCTVSGFSLTNYGIHWVRQPPGKGLEWLGVIWARGFTNYNSALMSRLIITKDNSQSQVFLKMNSLQPDDSATYFCARANDGVYYAMDYWGQGTSVTVSS
# VL: QFVLTQSPAFLSASPGEKVTMTCSANSSVNYIHWYQQKSGTSPKKWIYDTSKLASGVPVRFSGSGSGTSYSLTISSMETEDAATYYCQQWTTNPLTFGAGTRVELK
# notes: murine VH and VL on human IgG1 Fc and human κ constant region; also called wt chimera
# B5: mouse-human chimeric TMC-2206 antibody carrying the two LC mutations of the SalI site (antibody, human IgG1, V domains shown)
# VH: B4 VH
# VL: B4 VL with E104D, L105I
# notes: human IgG1 Fc and human κ constant region; 'L1061' is printed for L106I; also called chimeric form carrying the two LC mutations
# B6: GST-human α2 I domain fusion protein (other)
# chain: GSSPDFQLSASFSPATQPCPSLIDVVVVCDESNSIYPWDAVKNFLEKFVQGLDIGPTKTQVGLIQYANNPRVVFNLNTYKTKEEMIVATSQTSQYGGDLTNTFGAIQYARKYAYSAASGGRRSATKVMVVVTDGESHDGSMLKAVIDQCNHDNILRFGIAVLGYLNRNALDTKNLIKEIKAIASIPTERYFFNVSDEAALLEKAGTLGEQIFSIEGTVEFIVTD
# notes: the reverse primer ends at ...SIEGTV; also called GST-α2 I domain; hα2I; not shown: glutathione S-transferase tag encoded by vector pGEX-2TK
# B7: GST-hα2 I domain A115T (other)
# chain: B6 chain with A117T
# notes: same construct as m41; not shown: GST carrier with the pGEX-2TK vector linker at the N end
# B8: GST-hα2 I domain A114Q (other)
# chain: B6 chain with A116Q
# notes: as for B7
# How the values were obtained:
# TMC-2206 [1] = molecular target: T1, TMC-2206; experiment: ELISA, GST fusion protein on immobilized TMC-2206
# T1 construct: murine IgG1/κ secreted by hybridoma BHA2.1; labelled with Eu-N1-ITC where used as tracer; also called BHA2.1
# Description: The Kᵢ assays were performed as described above in Example 2. […] Plates were sealed and coating occurred overnight at 4° C. The next morning, the plates were washed twice with TBS solution and then blocked using 200 μL of the blocking solution described above for 1 hour at room temperature with shaking. After blocking, the blocking solution was removed but the wells were not washed. Instead, a serial dilution of GST fusion protein was made, added to the wells and then incubated for 2 hours at room temperature with shaking. The wells were then aspirated and a TBS washing buffer applied for 5 minutes at room temperature. The washing step was repeated twice more before the secondary antibody was applied. The secondary antibody step consisted of Amersham's HRP-conjugated rabbit anti-GST antibody diluted 1:2000 in blocking buffer. One hundred μL of secondary antibody was added to each well and incubated at room temperature for 1.5 hours with shaking. The wells were again aspirated and washed three times with wash buffer before adding the substrate reaction mixture. One hundred μL of substrate reaction mixture (1:1 dilution of TMB kit) was then added to each well for 6 minutes. […] The reaction within the wells was then read and quantified by spectrophotometric absorption using the Molecular Dynamics plate reader and associated Softmax software, respectively. […]
# [2] = molecular target: T2, Humanized TMC-2206 (hIgG4/κ VH12.0/VL10.0Q); experiment: fusion protein competing Eu-humanized TMC-2206 off α2β1-coated plates
# T2 construct: labelled with Eu or Alexa-488 in some assays
# T2 sequence (heavy, as listed by the source, chain 1 of 2): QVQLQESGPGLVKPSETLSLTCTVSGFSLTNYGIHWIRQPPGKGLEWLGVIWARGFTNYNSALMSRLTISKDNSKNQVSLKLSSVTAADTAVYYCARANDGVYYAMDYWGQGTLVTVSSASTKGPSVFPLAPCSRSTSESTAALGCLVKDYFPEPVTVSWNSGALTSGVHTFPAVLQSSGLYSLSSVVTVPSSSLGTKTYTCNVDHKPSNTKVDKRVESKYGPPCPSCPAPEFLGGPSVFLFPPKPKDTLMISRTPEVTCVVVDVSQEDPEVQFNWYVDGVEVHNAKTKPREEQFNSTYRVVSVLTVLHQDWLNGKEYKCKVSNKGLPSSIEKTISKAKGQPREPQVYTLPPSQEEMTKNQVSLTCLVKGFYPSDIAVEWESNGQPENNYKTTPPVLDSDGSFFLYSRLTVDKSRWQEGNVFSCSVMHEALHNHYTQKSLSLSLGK
# T2 sequence (light, as listed by the source, chain 2 of 2): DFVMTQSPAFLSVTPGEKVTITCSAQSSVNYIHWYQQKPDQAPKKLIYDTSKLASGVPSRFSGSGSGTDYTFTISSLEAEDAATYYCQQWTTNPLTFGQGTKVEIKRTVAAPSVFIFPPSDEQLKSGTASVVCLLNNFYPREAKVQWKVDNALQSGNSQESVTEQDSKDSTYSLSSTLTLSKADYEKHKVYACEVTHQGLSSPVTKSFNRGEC
# Excerpt: The inhibition curves were fitted with the “one site competition” model using Prism software (GraphPad, Inc.) to obtain IC₅₀ values and to calculate the Kᵢ using the equation of Cheng and Prusoff (1973) and the respective values for KD from above.
# The cloning of the human, rhesus macaque, rat, and mouse α2 I domains were described in Example 12. Cynomolgus and additional rhesus monkey α2 I domains were cloned from cDNA derived from total RNA extracted from skin tissue (MediCorp, Inc., Montreal, QC).
# TMC-2206 [3] = molecular target: T1, TMC-2206; experiment: fusion protein competing Eu-TMC-2206 off α2β1-coated plate
# Description: After incubating the sealed plates for 1 hr at 37° C. to allow binding to reach equilibrium, 2 μL samples were transferred from each well into a fresh well containing DELFIA Enhancement Solution (100 μL/well; Perkin-Elmer) for the measurement of free (unbound) label. Enhancement Solution (100 μL/well) was added to the emptied wells for the measurement of bound label. The plate was shaken (Titer Plate Shaker speed setting of 5 for 5 minutes at room temperature) and time-resolved fluorescent (TRF) intensities were read using a Victor2 multi-label plate reader (Perkin-Elmer Wallac, Boston, Mas.).
# The fusion proteins were then expressed and purified as described above for the human GST-α2 I domain fusion protein. […] Therefore, these and the primate fusion proteins were further purified by size exclusion chromatography on a Sephadex 75 10/30 (GE-Amersham) column (primate) by FPLC on an Akta-Basic FPLC system (GE-Amersham) to yield a monomeric fraction. […] The Kᵢ assays were performed as described above in Example 2. […] Plates were sealed and coating occurred overnight at 4° C. The next morning, the plates were washed twice with TBS solution and then blocked using 200 μL of the blocking solution described above for 1 hour at room temperature with shaking. After blocking, the blocking solution was removed but the wells were not washed. […]
# [4] = molecular target: T3, human platelet α2β1 integrin (immobilized on microtiter plates) (human, UniProt P17301 30-1181; P05556 21-798); experiment: competition with Eu-TMC-2206 on human platelet α2β1-coated plate, Cheng-Prusoff
# T3 construct: plates custom-coated with human platelet α2β1 by GTI Inc; also called immobilized α2β1 integrin; α2β1-coated plates
# T3 sequence (P17301 30-1181 E534K limits assumed, chain 1 of 2): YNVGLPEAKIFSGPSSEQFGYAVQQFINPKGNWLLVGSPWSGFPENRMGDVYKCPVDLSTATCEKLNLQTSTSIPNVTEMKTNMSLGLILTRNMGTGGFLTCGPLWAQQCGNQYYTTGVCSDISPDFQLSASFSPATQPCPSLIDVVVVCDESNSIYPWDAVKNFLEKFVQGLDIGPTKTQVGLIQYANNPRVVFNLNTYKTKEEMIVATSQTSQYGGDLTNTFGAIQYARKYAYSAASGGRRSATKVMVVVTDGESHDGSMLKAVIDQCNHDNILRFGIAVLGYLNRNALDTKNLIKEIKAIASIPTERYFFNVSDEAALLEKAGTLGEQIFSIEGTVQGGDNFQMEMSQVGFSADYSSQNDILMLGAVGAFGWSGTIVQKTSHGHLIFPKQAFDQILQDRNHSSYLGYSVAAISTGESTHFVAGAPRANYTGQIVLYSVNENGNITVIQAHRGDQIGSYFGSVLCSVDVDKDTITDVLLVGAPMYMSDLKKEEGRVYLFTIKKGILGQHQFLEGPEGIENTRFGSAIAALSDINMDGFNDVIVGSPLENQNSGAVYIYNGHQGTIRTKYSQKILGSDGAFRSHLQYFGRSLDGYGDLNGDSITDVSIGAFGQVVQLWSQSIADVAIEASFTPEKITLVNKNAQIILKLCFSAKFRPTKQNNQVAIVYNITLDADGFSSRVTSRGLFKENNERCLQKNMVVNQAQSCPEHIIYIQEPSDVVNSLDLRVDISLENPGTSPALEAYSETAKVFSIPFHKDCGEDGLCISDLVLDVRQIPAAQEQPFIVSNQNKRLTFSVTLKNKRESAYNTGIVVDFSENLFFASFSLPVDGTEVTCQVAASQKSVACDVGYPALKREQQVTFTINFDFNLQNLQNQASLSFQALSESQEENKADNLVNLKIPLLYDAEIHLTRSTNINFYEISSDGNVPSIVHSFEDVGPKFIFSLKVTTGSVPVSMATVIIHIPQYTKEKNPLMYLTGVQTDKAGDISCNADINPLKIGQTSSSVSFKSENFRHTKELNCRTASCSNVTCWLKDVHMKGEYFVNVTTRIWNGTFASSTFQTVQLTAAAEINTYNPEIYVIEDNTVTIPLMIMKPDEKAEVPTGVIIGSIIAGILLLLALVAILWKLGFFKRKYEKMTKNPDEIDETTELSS
# T3 sequence (P05556 21-798 limits assumed, chain 2 of 2): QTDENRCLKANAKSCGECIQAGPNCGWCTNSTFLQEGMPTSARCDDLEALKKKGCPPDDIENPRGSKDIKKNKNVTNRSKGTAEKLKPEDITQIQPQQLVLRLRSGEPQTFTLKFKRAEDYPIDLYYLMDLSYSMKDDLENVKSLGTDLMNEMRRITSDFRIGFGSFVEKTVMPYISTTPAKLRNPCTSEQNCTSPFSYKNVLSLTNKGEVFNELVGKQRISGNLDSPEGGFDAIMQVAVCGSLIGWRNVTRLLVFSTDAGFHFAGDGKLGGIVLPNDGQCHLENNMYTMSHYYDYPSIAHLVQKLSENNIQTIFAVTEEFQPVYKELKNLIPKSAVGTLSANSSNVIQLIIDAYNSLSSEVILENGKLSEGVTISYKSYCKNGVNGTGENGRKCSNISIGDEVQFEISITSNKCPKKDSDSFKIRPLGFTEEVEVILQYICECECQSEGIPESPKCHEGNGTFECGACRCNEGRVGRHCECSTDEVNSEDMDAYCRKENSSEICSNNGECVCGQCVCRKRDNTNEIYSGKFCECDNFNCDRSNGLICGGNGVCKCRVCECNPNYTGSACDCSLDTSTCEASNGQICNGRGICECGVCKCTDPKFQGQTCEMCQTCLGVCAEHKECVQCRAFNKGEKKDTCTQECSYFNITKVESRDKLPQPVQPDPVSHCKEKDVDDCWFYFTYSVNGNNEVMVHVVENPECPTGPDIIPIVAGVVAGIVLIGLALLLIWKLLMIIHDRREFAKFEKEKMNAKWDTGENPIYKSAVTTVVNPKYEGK
# Description: Each labeled antibody mixture was applied to a separate PD-10 column (GE Biosciences, Piscataway, N.J.) pre-equilibrated with Running Buffer (50 mM Tris, pH 7.4 and 138 mM NaCl). Fractions (0.5 mL) were collected and assayed for total protein (Bradford reagent; Bio-Rad Laboratories, Hercules, Calif.) using a SpectraMax 384 absorbance plate reader and for europium after 1:10.000 dilution in DELFIA Enhancement Solution (Perkin-Elmer) by time-resolved fluorescence (TRF) using a Victor2 multi-label plate reader (Perkin Elmer). The fractions that were positive for both protein and Eu label were pooled and applied to new PD-10 columns and samples collected and assayed for total protein and for europium content by TRF calibrated against a europium standard solution (Perkin-Elmer) to calculate the fluor: protein ratio. […] After incubating the sealed plates for 1 hr at 37° C. to allow binding to reach equilibrium, 2 μL samples were transferred from each well into a fresh well containing DELFIA Enhancement Solution (100 μL/well; Perkin-Elmer) for the measurement of free (unbound) label. […] The plate was shaken (Titer Plate Shaker speed setting of 5 for 5 minutes at room temperature) and time-resolved fluorescent (TRF) intensities were read using a Victor2 multi-label plate reader (Perkin-Elmer Wallac, Boston, Mas.).
# [5] = molecular target: T3, human platelet α2β1 integrin …; experiment: competition with Eu-TMC-2206 on human platelet α2β1-coated plate
# Description: Each labeled antibody mixture was applied to a separate PD-10 column (GE Biosciences, Piscataway, N.J.) pre-equilibrated with Running Buffer (50 mM Tris, pH 7.4 and 138 mM NaCl). Fractions (0.5 mL) were collected and assayed for total protein (Bradford reagent; Bio-Rad Laboratories, Hercules, Calif.) using a SpectraMax 384 absorbance plate reader and for europium after 1:10.000 dilution in DELFIA Enhancement Solution (Perkin-Elmer) by time-resolved fluorescence (TRF) using a Victor2 multi-label plate reader (Perkin Elmer). The fractions that were positive for both protein and Eu label were pooled and applied to new PD-10 columns and samples collected and assayed for total protein and for europium content by TRF calibrated against a europium standard solution (Perkin-Elmer) to calculate the fluor: protein ratio. […] After incubating the sealed plates for 1 hr at 37° C. to allow binding to reach equilibrium, 2 μL samples were transferred from each well into a fresh well containing DELFIA Enhancement Solution (100 μL/well; Perkin-Elmer) for the measurement of free (unbound) label. Enhancement Solution (100 μL/well) was added to the emptied wells for the measurement of bound label. The plate was shaken (Titer Plate Shaker speed setting of 5 for 5 minutes at room temperature) and time-resolved fluorescent (TRF) intensities were read using a Victor2 multi-label plate reader (Perkin-Elmer Wallac, Boston, Mas.).
# [6] = molecular target: human α2 integrin with endogenous hamster β1 on CHO cells (human; hamster); experiment: cell-based or functional assay
# human α2 integrin with endogenous hamster β1 on CHO cells (human; hamster), sequence (P17301 30-1181 E534K): as the sequence (P17301 30-1181 E534K limits assumed, chain 1 of 2) above
# [7] = molecular target: T3, human platelet α2β1 integrin …; experiment: competition with Eu-TMC-2206 on human platelet α2β1-coated plate; remark: listed apart in the source
# TMC-2206 [8] = molecular target: T1, TMC-2206; experiment: fusion protein competing Eu-TMC-2206 off α2β1-coated plate; remark: listed apart in the source
# TMC-2206 [9] = molecular target: T1, TMC-2206; experiment: as above; remark: listed apart in the source
# Description: Wells in a 96 well microtiter plate were coated with platelet α2β1-integrin (custom-coated with human platelet α2β1 by GTI Inc., Wis.) and then blocked with nonfat milk. […] After concentration in prewashed MicroSep concentrators (30-kDa cutoff; Pall Life Sciences at 9500 rpm (7000×g) in a JA-20 rotor (Beckman Instruments, Inc.) for 20 minutes at 4° C.), antibodies were adjusted to 4.0 mg/mL with PBS containing a final concentration of 100 mM NaHCO₃, pH 9.3. The mAb/bicarbonate mixture (0.250 mL) was gently mixed into a vial containing 0.2 mg N¹-(p-isothiocyanatobenzyl)-diethylenetriamine-N¹,N²,N³N³-tetraacetic acid chelated with Eu³⁺ (Eu-N1-ITC; Perkin Elmer Life Sciences) and reacted overnight at 4° C. without stirring. Each labeled antibody mixture was applied to a separate PD-10 column (GE Biosciences, Piscataway, N.J.) pre-equilibrated with Running Buffer (50 mM Tris, pH 7.4 and 138 mM NaCl). Fractions (0.5 mL) were collected and assayed for total protein (Bradford reagent; Bio-Rad Laboratories, Hercules, Calif.) using a SpectraMax 384 absorbance plate reader and for europium after 1:10.000 dilution in DELFIA Enhancement Solution (Perkin-Elmer) by time-resolved fluorescence (TRF) using a Victor2 multi-label plate reader (Perkin Elmer). The fractions that were positive for both protein and Eu label were pooled and applied to new PD-10 columns and samples collected and assayed for total protein and for europium content by TRF calibrated against a europium standard solution (Perkin-Elmer) to calculate the fluor: protein ratio.
# TMC-2206 [10] = molecular target: T1, TMC-2206; experiment: ELISA, GST fusion protein on immobilized TMC-2206 (Kd apparent)
# Description: The fusion proteins were then expressed and purified as described above for the human GST-α2 I domain fusion protein. […] Therefore, these and the primate fusion proteins were further purified by size exclusion chromatography on a Sephadex 75 10/30 (GE-Amersham) column (primate) by FPLC on an Akta-Basic FPLC system (GE-Amersham) to yield a monomeric fraction. […] The Kᵢ assays were performed as described above in Example 2. […] Plates were sealed and coating occurred overnight at 4° C. The next morning, the plates were washed twice with TBS solution and then blocked using 200 μL of the blocking solution described above for 1 hour at room temperature with shaking. After blocking, the blocking solution was removed but the wells were not washed. Instead, a serial dilution of GST fusion protein was made, added to the wells and then incubated for 2 hours at room temperature with shaking. The wells were then aspirated and a TBS washing buffer applied for 5 minutes at room temperature. The washing step was repeated twice more before the secondary antibody was applied. The secondary antibody step consisted of Amersham's HRP-conjugated rabbit anti-GST antibody diluted 1:2000 in blocking buffer. One hundred μL of secondary antibody was added to each well and incubated at room temperature for 1.5 hours with shaking. The wells were again aspirated and washed three times with wash buffer before adding the substrate reaction mixture. One hundred μL of substrate reaction mixture (1:1 dilution of TMB kit) was then added to each well for 6 minutes. The reaction was stopped by adding 100 μL of 0.1M H₂SO₄. The reaction within the wells was then read and quantified by spectrophotometric absorption using the Molecular Dynamics plate reader and associated Softmax software, respectively. Kd values were then estimated from the EC₅₀ values using Prism software (Graphpad, Calif.).
binder,measurement,setting,value
B1,fold shift in affinity,TMC-2206 [1],> 1500 fold
B2,Ki,[2],0.4 nM
same,Ki,TMC-2206 [3],4.4 nM
B3,binding result,TMC-2206 [1],no binding (tested: 40 nM)
B4,Ki,[4],0.27 nM
same,Ki,[5],0.26 nM
same,"EC50, inhibition of adhesion of CHO-α2 cells to collagen Type I",[6],1.8 nM
same,Ki,[7],0.52 nM
B5,Ki,[4],0.27 nM
B6,Ki,[2],0.57 nM
same,Ki,TMC-2206 [3],0.33 nM
same,Ki,TMC-2206 [8],0.28 nM
same,Ki,TMC-2206 [9],0.18 nM
B7,Kd,TMC-2206 [10],0.19 nM
same,Ki,TMC-2206 [9],0.76 nM
B8,Kd,TMC-2206 [10],0.19 nM
same,Ki,TMC-2206 [9],0.64 nM
